According to patent publication US20200147231A1 (NATIONAL CANCER CENTER JAPAN, published 2020):
Each block holds one binder with its values, some of them ahead of it.

How the values were obtained:
[1] = molecular target: T1, insoluble fibrin (fibrinogen from human plasma, immobilised on a plate and treated with thrombin) (human, UniProt P02671 36-629; P02679 27-437); assay: ELISA on the human fibrin plate (coated fibrinogen treated with thrombin), HRP secondary antibody, absorbance at 450 nm
T1 construct: Plasma-derived material; also called fibrin plate; insoluble fibrin plate
T1 sequence 1: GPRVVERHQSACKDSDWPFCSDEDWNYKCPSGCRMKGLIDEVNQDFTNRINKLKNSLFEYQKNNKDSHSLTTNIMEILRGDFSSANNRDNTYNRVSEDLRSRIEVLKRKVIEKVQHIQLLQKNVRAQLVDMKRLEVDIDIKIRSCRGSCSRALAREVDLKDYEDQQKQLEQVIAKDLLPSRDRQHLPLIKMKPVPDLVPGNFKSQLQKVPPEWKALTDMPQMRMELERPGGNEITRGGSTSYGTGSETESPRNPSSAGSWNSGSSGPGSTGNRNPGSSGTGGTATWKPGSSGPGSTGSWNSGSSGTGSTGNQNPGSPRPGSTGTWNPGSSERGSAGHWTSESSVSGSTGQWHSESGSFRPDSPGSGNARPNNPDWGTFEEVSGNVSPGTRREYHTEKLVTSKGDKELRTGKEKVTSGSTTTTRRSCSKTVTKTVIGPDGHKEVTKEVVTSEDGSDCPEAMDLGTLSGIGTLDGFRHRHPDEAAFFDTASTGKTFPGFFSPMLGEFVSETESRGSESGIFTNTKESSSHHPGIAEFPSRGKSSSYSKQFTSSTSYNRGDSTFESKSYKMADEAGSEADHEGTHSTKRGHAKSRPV
T1 sequence 2: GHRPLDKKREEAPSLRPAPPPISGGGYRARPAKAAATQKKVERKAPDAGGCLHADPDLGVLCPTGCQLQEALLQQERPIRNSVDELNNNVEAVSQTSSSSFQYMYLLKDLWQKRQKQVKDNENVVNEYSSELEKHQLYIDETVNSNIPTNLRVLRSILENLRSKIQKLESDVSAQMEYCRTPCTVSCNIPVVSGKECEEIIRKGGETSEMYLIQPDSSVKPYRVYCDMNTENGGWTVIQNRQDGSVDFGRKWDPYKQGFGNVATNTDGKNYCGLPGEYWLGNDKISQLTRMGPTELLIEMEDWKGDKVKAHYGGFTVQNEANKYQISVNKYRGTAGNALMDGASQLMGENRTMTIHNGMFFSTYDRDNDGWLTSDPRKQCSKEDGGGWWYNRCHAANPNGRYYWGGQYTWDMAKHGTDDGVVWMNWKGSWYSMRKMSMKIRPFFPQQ
T1 sequence 3: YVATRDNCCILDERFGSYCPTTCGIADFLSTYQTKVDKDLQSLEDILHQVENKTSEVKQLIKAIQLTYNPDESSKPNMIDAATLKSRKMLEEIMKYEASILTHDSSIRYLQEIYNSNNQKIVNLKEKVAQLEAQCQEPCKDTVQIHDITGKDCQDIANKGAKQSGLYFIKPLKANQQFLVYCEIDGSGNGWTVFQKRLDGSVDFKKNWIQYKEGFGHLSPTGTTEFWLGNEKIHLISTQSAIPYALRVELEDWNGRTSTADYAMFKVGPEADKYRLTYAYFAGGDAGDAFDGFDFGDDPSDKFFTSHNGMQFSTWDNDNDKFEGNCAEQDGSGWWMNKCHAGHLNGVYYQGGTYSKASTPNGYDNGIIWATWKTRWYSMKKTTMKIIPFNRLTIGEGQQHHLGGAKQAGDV
Method: In advance of the ELISA, an antigen-immobilized plate was prepared. Fibrinogen from human plasma (SIGMA) was dissolved in TBS (pH 8.5) to produce a 20 μg/mL fibrinogen solution. The solution was added to a 96-well immunoplate at 50 μL/well and was left to stand at 4° C. overnight to prepare a fibrinogen plate. Thrombin diluted to 0.05 NIH U/mL with a thrombin diluent [7 mM L-cysteine (FUJIFILM Wako Pure Chemical Corporation), 1 mM CaCl₂ (FUJIFILM Wako Pure Chemical Corporation), TBS (pH 8.5)] was added to the fibrinogen plate at 100 μL/well and was incubated at 37° C. for 2 hours to prepare a fibrin plate. The plate on which each antigen was immobilized was washed with 200 μL of PBS-T (PBS, 0.5% (v/v) Tween 20) three times, and 200 μL of a blocking solution [PBS-T, 1% (w/v) BSA] were added to each well, followed by being left to stand at room temperature for 1 hour for blocking. The samples serially diluted with PBS were added to the plate at 50 μL/well and were left to stand at room temperature for 1 hour. The solutions were discarded, and the plate was washed with PBS-T three times. A secondary antibody diluted to 0.3 μg/mL with the blocking solution was added to the plate at 50 μL/well, followed by being left to stand at room temperature for 30 minutes. […]

[2] = molecular target: peptide of the epitope site of 102-10; assay: SPR (Biacore T200), peptide immobilised on CM5, antibody as analyte, multi cycle kinetics

B2: antibody obtained from clone 1101 (antibody, V domains shown)
VH: EVQLQQSGTVLARPGASVKMSCKASGFSFTSYWMHWVKQRPGQGLEWIGAIYPGNSDTRNNQKFKGKAKLTAVTSANTAYMELSSLTNEDSAVYYCTRKAHYGNYGFAYWGQGTLVTVSA
VL: DIQMTQSSSYLSVSLGGRVTITCKASDHINNWLAWYQQKPGNAPRLLISGATSLETGVPSRFSGSGSGKDYTLSITSLQTEDVATYYCQQYWSTPLTFGAGTKLELKR
notes: also called antibody 1101
binding result [1]: binds

B3: antibody obtained from clone 99-5 (antibody, V domains shown)
VH: QIQLVQSGPELKKPGETVKISCKASGYTFTNYGMNWVKQAPGKGLKWMGWINTKIGEPTYAEEFKGRFAFSLETSASTAYLQINNLKNEDTATYFCARLLDYWGQGTTLTVSSAKTTPPSV
VL: GDIVLTQSPASLAVSLGQRATISCRASESVDSYGNSFMHWYQQKPGQPPKLLIYRASNLESGIPARFSGSGSRTDFTLTINPVEADDVATYYCQQSNEDPRTFGGGTKLEIKRADAAPTVS
Kd [2]: 0.0326 µM
koff [2]: 0.000585 s⁻¹
kon [2]: 18000 M⁻¹ s⁻¹

Second part, the binder after the results:

binding result [1]: binds
B1: antibody obtained from clone 99-5 (antibody, V domains shown)
VH: QIQLVQSGPELKKPGETVKISCKASGYTFTNYGMNWVKQAPGKGLKWMGWINTKIGEPTYAEEFKGRFAFSLETSASTAYLQINNLKNEDTATYFCARLLDYWGQGTTLTVSS
VL: DIVLTQSPASLAVSLGQRATISCRASESVDSYGNSFMHWYQQKPGQPPKLLIYRASNLESGIPARFSGSGSRTDFTLTINPVEADDVATYYCQQSNEDPRTFGGGTKLEIKR
notes: also called antibody 99

Kd [2]: 0.0668 µM
koff [2]: 0.00325 s⁻¹
kon [2]: 93700 M⁻¹ s⁻¹
B4: antibody obtained from clone 1101 (antibody, V domains shown)
VH: EVQLQQSGTVLARPGASVKMSCKASGFSFTSYWMHWVKQRPGQGLEWIGAIYPGNSDTRNNQKFKGKAKLTAVTSANTAYMELSSLTNEDSAVYYCTRKAHYGNYGFAYWGQGTLVTVSAA
VL: DIQMTQSSSYLSVSLGGRVTITCKASDHINNWLAWYQQKPGNAPRLLISGATSLETGVPSRFSGSGSGKDYTLSITSLQTEDVATYYCQQYWSTPLTFGAGTKLELKRADAAP
